2 molecules from publication PMC10197132 can be followed below.

The target in data set [1] is G3-SEAP (human-secreted embryonic alkaline phosphatase with an N-terminal Gly3 sequence) (human). Nature of the data set: SEC-MALS. (In gel filtration, larger molecules generally elute earlier.)
A further data set concerns the target G3-SEAP (human, UniProt P05187). Nature of the data set: fluorescence polarization. For orientation: In fluorescence polarisation assays a small probe gives low polarisation when free and higher when bound to something large.

Consider “G3-SEAP (human-secreted embryonic alkaline phosphatase with an N-terminal Gly3 sequence) (enzyme)”, for which the stoichiometry N in data set [1] stood at 2.

B1: FAM-23DR DNA-RNA hybrid (DNA:RNA)
DNA: CGGTGTGGTCGCTGTAATCAGAG
RNA: CUCUGAUUACAGCGACCACACCG
In the case of B1, the binding result in the data set with G3-SEAP is on record as “no binding”.

In general, stoichiometry N refers to the number of molecules, sites or subunits per partner or assembly.
